Measurements: PMC7066243

Assays:
[1] = target: T1, ether-a-go-go 1 voltage-gated potassium channel (hEAG1) (human) (UniProt O95259)
T1 sequence: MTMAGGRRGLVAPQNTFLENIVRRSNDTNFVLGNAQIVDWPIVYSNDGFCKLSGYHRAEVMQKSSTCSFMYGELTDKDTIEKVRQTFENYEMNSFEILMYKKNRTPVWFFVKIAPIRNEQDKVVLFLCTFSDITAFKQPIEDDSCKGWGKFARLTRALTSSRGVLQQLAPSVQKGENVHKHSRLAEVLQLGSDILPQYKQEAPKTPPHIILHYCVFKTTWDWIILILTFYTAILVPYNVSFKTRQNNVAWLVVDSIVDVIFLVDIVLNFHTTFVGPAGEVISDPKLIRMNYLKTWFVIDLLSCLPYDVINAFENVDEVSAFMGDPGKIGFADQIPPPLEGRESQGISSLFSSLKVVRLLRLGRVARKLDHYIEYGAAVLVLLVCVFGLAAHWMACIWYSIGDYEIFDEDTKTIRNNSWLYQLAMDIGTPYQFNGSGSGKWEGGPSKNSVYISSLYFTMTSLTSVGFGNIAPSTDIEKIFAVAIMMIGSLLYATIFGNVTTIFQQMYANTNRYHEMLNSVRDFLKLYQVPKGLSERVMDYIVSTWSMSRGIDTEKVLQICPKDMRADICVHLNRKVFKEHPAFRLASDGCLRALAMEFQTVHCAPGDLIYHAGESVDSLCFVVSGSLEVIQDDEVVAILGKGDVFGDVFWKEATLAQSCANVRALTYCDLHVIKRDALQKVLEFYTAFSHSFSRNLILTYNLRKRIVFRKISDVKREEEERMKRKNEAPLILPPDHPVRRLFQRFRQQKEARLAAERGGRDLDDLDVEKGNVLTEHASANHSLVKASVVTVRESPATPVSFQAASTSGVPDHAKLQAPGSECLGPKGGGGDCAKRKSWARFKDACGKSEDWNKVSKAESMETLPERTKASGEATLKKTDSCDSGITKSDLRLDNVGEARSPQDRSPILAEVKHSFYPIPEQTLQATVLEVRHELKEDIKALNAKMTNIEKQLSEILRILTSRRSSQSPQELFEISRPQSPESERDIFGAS

[2] = target: T1, ether-a-go-go 1 voltage-gated potassium channel (hEAG1) (human); remark: listed apart in the source

BjSP (from UniProt Q5W959 25-258) (enzyme)
inhibition of hEAG1 current at 5 µM (two-electrode voltage clamp, Xenopus laevis oocytes) [1]: 9.2%

gyroxin_B1.3 (from UniProt B0FXM1 25-262) (enzyme)
inhibition of hEAG1 current at 5 µM (two-electrode voltage clamp, Xenopus laevis oocytes) [1]: 58%

mutant collinein-1 (His43Arg) (enzyme)
IC50 of inhibition of hEAG1 current (two-electrode voltage clamp, Xenopus laevis oocytes) [2]: 4.3 µM

native collinein-1 (enzyme)
IC50 of inhibition of hEAG1 current (two-electrode voltage clamp, Xenopus laevis oocytes) [2]: 4.2 µM

recombinant collinein-1 (enzyme)
IC50 of inhibition of hEAG1 current (two-electrode voltage clamp, Xenopus laevis oocytes) [2]: 2.5 µM
